B1: Sirtuin (silent mating type information regulation 2 homolog) 1 (protein)
chain: MADEAALALQPGGSPSAAGADREAASSPAGEPLRKRPRRDGPGLERSPGEPGGAAPEREVPAAARGCPGAAAAALWREAEAEAAAAGGEQEAQATAAAGEGDNGPGLQGPSREPPLADNLYDEDDDDEGEEEEEAAAAAIGYRDNLLFGDEIITNGFHSCESDEEDRASHASSSDWTPRPRIGPYTFVQQHLMIGTDPRTILKDLLPETIPPPELDDMTLWQIVINILSEPPKRKKRKDINTIEDAVKLLQECKKIIVLTGAGVSVSCGIPDFRSRDGIYARLAVDFPDLPDPQAMFDIEYFRKDPRPFFKFAKEIYPGQFQPSLCHKFIALSDKEGKLLRNYTQNIDTLEQVAGIQRIIQCHGSFATASCLICKYKVDCEAVRGDIFNQVVPRCPRCPADEPLAIMKPEIVFFGENLPEQFHRAMKYDKDEVDLLIVIGSSLKVRPVALIPSSIPHEVPQILINREPLPHLHFDVELLGDCDVIINELCHRLGGEYAKLCCNPVKLSEITEKPPRTQKELAYLSELPPTPLHVSEDSSSPERTSPPDSSVIVTLLDQAAKSNDDLDVSESKGCMEEKPQEVQTSRNVESIAEQMENPDLKNVGSSTGEKNERTSVAGTVRKCWPNRVAKEQISRRLDGNQYLFLPPNRYIFHGAEVYSDSEDDVLSSSSCGSNSDSGTCQSPSLEEPMEDESEIEEFYNGLEDEPDVPERAGGAGFGTDGDDQEAINEAISVKQEVTDMNYPSNKS
deacetylation in vitro (SDS-PAGE, blots for acetyl-lysine and PCSK9) (Recombinant PCSK9): PCSK9 is deacetylated by SIRT1 in vitro | increase in fluorescence caused by deacetylation of fluorogenic PCSK9 peptide (acetyl-PCSK9-AMC peptide): SIRT1 deacetylates fluorogenic PCSK9 peptide

— patent US20180066070
